Results on two molecules are retold here after paper doi:10.1101/2024.09.19.614015 (bioRxiv, 2024).

Data set [1] deals with Staphylococcus aureus O-acetyl-L-serine sulfhydrylase (CysK) (S. aureus) (UniProt P63871). The experiment in a line: SPR. Background: SPR reads the build-up and loss of mass on a sensor chip optically.
The data set “crystal structure” deals with the molecule itself. The experiment in a line: crystal structure.

As usually defined, the Kd is a measure of binding affinity in units of concentration. Lower therefore signals higher affinity. On to MFYI [CymR 4], for which the equilibrium dissociation constant (Kd) in data set [1] amounted to 4.1 µM.

B1: Staphylococcus aureus O-acetyl-L-serine sulfhydrylase (CysK) (enzyme, S. aureus, UniProt P63871 1-310, looked up)
chain: MAQKPVDNITQIIGGTPVVKLRNVVDDNAADVYVKLEYQNPGGSVKDRIALAMIEKAEREGKIKPGDTIVEPTSGNTGIGLAFVCAAKGYKAVFTMPETMSQERRNLLKAYGAELVLTPGSEAMKGAIKKAKELKEEHGYFEPQQFENPANPEVHELTTGPELLQQFEGKTIDAFLAGVGTGGTLSGVGKVLKKEYPNIEIVAIEPEASPVLSGGEPGPHKLQGLGAGFIPGTLNTEIYDSIIKVGNDTAMEMSRRVAKEEGILAGISSGAAIYAAIQKAKELGKGKTVVTVLPSNGERYLSTPLYSFDD
modifications: PLP cofactor in a Schiff base linkage with the ε-amino group of K46
In general, stoichiometry N refers to a count of units in the complex or per binding partner. Turning to B1, the “stoichiometry N” value in “crystal structure” was found to be 2.
